# In patent publication US20220033501A1:
# “And” between values parts separate entries of the source, which are not always exact repeats. Equal values may be shown once.
# How the values were obtained:
# [1] = biological target: human TIM-3 protein on human PBMC (human) (UniProt Q8TDQ0); assay: cell-based or functional assay
# [2] = biological target: human TIM-3 protein with hFc tag (hTIM-3-hFc protein) (human) (UniProt Q8TDQ0); assay: ELISA, hTIM-3-hFc coated at 1 ug/ml; antibody 0.11 nM
# [3] = biological target: human TIM-3 protein with hFc tag (hTIM-3-hFc protein) (human) (UniProt Q8TDQ0); assay: ELISA, hTIM-3-hFc coated at 1 ug/ml; antibody 0.53 nM
# [4] = biological target: human TIM-3 protein with hFc tag (hTIM-3-hFc protein) (human) (UniProt Q8TDQ0); assay: ELISA, hTIM-3-hFc coated at 1 ug/ml; antibody 2.67 nM
# [5] = biological target: human TIM-3 protein with hFc tag (hTIM-3-hFc protein) (human) (UniProt Q8TDQ0); assay: ELISA, hTIM-3-hFc coated at 1 ug/ml; antibody 66.7 nM
# [6] = biological target: human TIM-3 protein with hFc tag (hTIM-3-hFc protein) (human) (UniProt Q8TDQ0); assay: ELISA, hTIM-3-hFc coated at 1 ug/ml; antibody 0.021 nM
# [7] = biological target: human TIM-3 protein with hFc tag (hTIM-3-hFc protein) (human) (UniProt Q8TDQ0); assay: ELISA, hTIM-3-hFc coated at 1 ug/ml; antibody 13.34 nM
# [8] = biological target: human TIM-3 protein with hFc tag (hTIM-3-hFc protein) (human) (UniProt Q8TDQ0); assay: ELISA, hTIM-3-hFc coated at 1 ug/ml; antibody 0.0043 nM
# [9] = biological target: human TIM-3 protein with hFc tag (hTIM-3-hFc protein) (human) (UniProt Q8TDQ0); assay: ELISA, hTIM-3-hFc coated at 1 ug/ml; antibody 0 nM (blank)
# [10] = biological target: human TIM-3, full length, on cells (human) (UniProt Q8TDQ0); assay: FACS, CHOK1-hTIM-3 cells; antibody 8 nM
# [11] = biological target: human TIM-3, full length, on cells (human) (UniProt Q8TDQ0); assay: FACS, CHOK1-hTIM-3 cells; antibody 40 nM
# [12] = biological target: human TIM-3, full length, on cells (human) (UniProt Q8TDQ0); assay: FACS, CHOK1-hTIM-3 cells; antibody 1.6 nM
# [13] = biological target: human TIM-3, full length, on cells (human) (UniProt Q8TDQ0); assay: FACS, CHOK1-hTIM-3 cells; antibody 200 nM
# [14] = biological target: human TIM-3, full length, on cells (human) (UniProt Q8TDQ0); assay: FACS, CHOK1-hTIM-3 cells; antibody 0.32 nM
# [15] = biological target: human TIM-3, full length, on cells (human) (UniProt Q8TDQ0); assay: FACS, CHOK1-hTIM-3 cells; antibody 0.013 nM
# [16] = biological target: human TIM-3, full length, on cells (human) (UniProt Q8TDQ0); assay: FACS, CHOK1-hTIM-3 cells; antibody 0.064 nM
# [17] = biological target: human TIM-3 protein with hFc tag (hTIM-3-hFc protein) (human) (UniProt Q8TDQ0); assay: ELISA, coated hTIM-3-hFc; antibody 0.0001 nM
# [18] = biological target: human TIM-3 protein with hFc tag (hTIM-3-hFc protein) (human) (UniProt Q8TDQ0); assay: ELISA, coated hTIM-3-hFc; antibody 0.0007 nM
# [19] = biological target: human TIM-3 protein with hFc tag (hTIM-3-hFc protein) (human) (UniProt Q8TDQ0); assay: ELISA, coated hTIM-3-hFc; antibody 0.0067 nM
# [20] = biological target: human TIM-3 protein with hFc tag (hTIM-3-hFc protein) (human) (UniProt Q8TDQ0); assay: ELISA, coated hTIM-3-hFc; antibody 0.0667 nM
# [21] = biological target: human TIM-3 protein with hFc tag (hTIM-3-hFc protein) (human) (UniProt Q8TDQ0); assay: ELISA, coated hTIM-3-hFc; antibody 0.6667 nM
# [22] = biological target: human TIM-3 protein with hFc tag (hTIM-3-hFc protein) (human) (UniProt Q8TDQ0); assay: ELISA, coated hTIM-3-hFc; antibody 6.6667 nM
# [23] = biological target: human TIM-3 protein with hFc tag (hTIM-3-hFc protein) (human) (UniProt Q8TDQ0); assay: ELISA, coated hTIM-3-hFc; antibody 66.667 nM
# [24] = biological target: monkey TIM-3 protein with hFc tag (cTIM-3-hFc protein) (monkey; human); assay: ELISA, coated cTIM-3-hFc; antibody 0.0001 nM
# [25] = biological target: monkey TIM-3 protein with hFc tag (cTIM-3-hFc protein) (monkey; human); assay: ELISA, coated cTIM-3-hFc; antibody 0.0007 nM
# [26] = biological target: monkey TIM-3 protein with hFc tag (cTIM-3-hFc protein) (monkey; human); assay: ELISA, coated cTIM-3-hFc; antibody 0.0067 nM
# [27] = biological target: monkey TIM-3 protein with hFc tag (cTIM-3-hFc protein) (monkey; human); assay: ELISA, coated cTIM-3-hFc; antibody 0.0667 nM
# [28] = biological target: monkey TIM-3 protein with hFc tag (cTIM-3-hFc protein) (monkey; human); assay: ELISA, coated cTIM-3-hFc; antibody 0.6667 nM
# [29] = biological target: monkey TIM-3 protein with hFc tag (cTIM-3-hFc protein) (monkey; human); assay: ELISA, coated cTIM-3-hFc; antibody 6.6667 nM
# [30] = biological target: monkey TIM-3 protein with hFc tag (cTIM-3-hFc protein) (monkey; human); assay: ELISA, coated cTIM-3-hFc; antibody 66.667 nM
# [31] = biological target: murine TIM-3 protein with hFc tag (mTIM-3-hFc protein) (mouse; human) (UniProt Q8VIM0); assay: ELISA, coated mTIM-3-hFc; antibody 0.0001 nM
# [32] = biological target: murine TIM-3 protein with hFc tag (mTIM-3-hFc protein) (mouse; human) (UniProt Q8VIM0); assay: ELISA, coated mTIM-3-hFc; antibody 0.0007 nM
# [33] = biological target: murine TIM-3 protein with hFc tag (mTIM-3-hFc protein) (mouse; human) (UniProt Q8VIM0); assay: ELISA, coated mTIM-3-hFc; antibody 0.0067 nM
# [34] = biological target: murine TIM-3 protein with hFc tag (mTIM-3-hFc protein) (mouse; human) (UniProt Q8VIM0); assay: ELISA, coated mTIM-3-hFc; antibody 0.0667 nM
# [35] = biological target: murine TIM-3 protein with hFc tag (mTIM-3-hFc protein) (mouse; human) (UniProt Q8VIM0); assay: ELISA, coated mTIM-3-hFc; antibody 0.6667 nM
# [36] = biological target: murine TIM-3 protein with hFc tag (mTIM-3-hFc protein) (mouse; human) (UniProt Q8VIM0); assay: ELISA, coated mTIM-3-hFc; antibody 6.6667 nM
# [37] = biological target: murine TIM-3 protein with hFc tag (mTIM-3-hFc protein) (mouse; human) (UniProt Q8VIM0); assay: ELISA, coated mTIM-3-hFc; antibody 66.667 nM
# [38] = biological target: human TIM-3 protein with hFc tag (hTIM-3-hFc protein) (human) (UniProt Q8TDQ0); assay: ELISA, coated hTIM-3-hFc; antibody 0 nM (blank)
# [39] = biological target: monkey TIM-3 protein with hFc tag (cTIM-3-hFc protein) (monkey; human); assay: ELISA, coated cTIM-3-hFc; antibody 0 nM (blank)
# [40] = biological target: murine TIM-3 protein with hFc tag (mTIM-3-hFc protein) (mouse; human) (UniProt Q8VIM0); assay: ELISA, coated mTIM-3-hFc; antibody 0 nM (blank)
# [41] = biological target: human TIM-3, full length, on cells (human) (UniProt Q8TDQ0); assay: FACS, CHOK1-hTIM-3 cells; antibody 0 nM (blank)
# [42] = biological target: TIM-3 protein on human peripheral blood mononuclear lymphocytes (PBMC) (human) (UniProt Q8TDQ0); assay: cell-based or functional assay
# [43] = biological target: monkey TIM-3 on CHOK1 stable cell line (CHOK1-cTIM-3) (monkey); assay: FACS, CHOK1-cTIM-3 cells, 0 nM antibody
# [44] = biological target: monkey TIM-3 on CHOK1 stable cell line (CHOK1-cTIM-3) (monkey); assay: FACS, CHOK1-cTIM-3 cells, 8 nM antibody
# [45] = biological target: monkey TIM-3 on CHOK1 stable cell line (CHOK1-cTIM-3) (monkey); assay: FACS, CHOK1-cTIM-3 cells, 40 nM antibody
# [46] = biological target: monkey TIM-3 on CHOK1 stable cell line (CHOK1-cTIM-3) (monkey); assay: FACS, CHOK1-cTIM-3 cells, 1.6 nM antibody
# [47] = biological target: monkey TIM-3 on CHOK1 stable cell line (CHOK1-cTIM-3) (monkey); assay: FACS, CHOK1-cTIM-3 cells, 200 nM antibody
# [48] = biological target: monkey TIM-3 on CHOK1 stable cell line (CHOK1-cTIM-3) (monkey); assay: FACS, CHOK1-cTIM-3 cells, 0.32 nM antibody
# [49] = biological target: monkey TIM-3 on CHOK1 stable cell line (CHOK1-cTIM-3) (monkey); assay: FACS, CHOK1-cTIM-3 cells, 0.013 nM antibody
# [50] = biological target: monkey TIM-3 on CHOK1 stable cell line (CHOK1-cTIM-3) (monkey); assay: FACS, CHOK1-cTIM-3 cells, 0.064 nM antibody
# Chain of murine TIM-3 protein with hFc tag (mTIM-3-hFc protein) (mouse; human) (Q8VIM0 other isoform, or with tags, fused parts or gaps): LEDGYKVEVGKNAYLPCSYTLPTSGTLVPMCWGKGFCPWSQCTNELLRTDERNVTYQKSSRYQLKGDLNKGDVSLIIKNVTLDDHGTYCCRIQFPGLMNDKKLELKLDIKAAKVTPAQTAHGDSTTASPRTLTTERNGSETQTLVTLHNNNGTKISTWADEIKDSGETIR
# Chain of monkey TIM-3 on CHOK1 stable cell line (CHOK1-cTIM-3) (monkey) (chain, as listed by the source limits assumed): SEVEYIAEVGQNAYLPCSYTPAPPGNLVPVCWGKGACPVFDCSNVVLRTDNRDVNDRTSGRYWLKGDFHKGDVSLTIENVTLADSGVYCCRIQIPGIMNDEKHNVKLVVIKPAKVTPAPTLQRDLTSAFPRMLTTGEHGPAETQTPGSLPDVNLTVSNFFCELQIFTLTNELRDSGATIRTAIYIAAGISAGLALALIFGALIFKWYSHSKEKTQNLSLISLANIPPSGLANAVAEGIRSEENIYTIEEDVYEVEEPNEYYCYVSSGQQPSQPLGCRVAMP
# Chain of monkey TIM-3 protein with hFc tag (cTIM-3-hFc protein) (monkey; human) (chain, as listed by the source): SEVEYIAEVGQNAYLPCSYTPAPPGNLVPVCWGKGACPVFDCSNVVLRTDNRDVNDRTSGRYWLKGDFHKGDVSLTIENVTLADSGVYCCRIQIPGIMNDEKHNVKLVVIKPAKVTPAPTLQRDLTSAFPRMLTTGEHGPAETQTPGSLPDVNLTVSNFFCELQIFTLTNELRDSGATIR
# Chain of human TIM-3, full length, on cells (human) (Q8TDQ0 22-301 limits assumed): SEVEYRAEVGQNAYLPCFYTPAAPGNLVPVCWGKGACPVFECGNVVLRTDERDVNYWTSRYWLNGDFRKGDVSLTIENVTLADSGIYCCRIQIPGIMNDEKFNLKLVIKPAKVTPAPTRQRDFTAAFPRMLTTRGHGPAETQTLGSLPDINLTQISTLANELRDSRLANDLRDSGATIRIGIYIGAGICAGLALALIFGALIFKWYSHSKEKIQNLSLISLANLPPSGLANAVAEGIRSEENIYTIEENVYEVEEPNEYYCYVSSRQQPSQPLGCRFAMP
# Chain of human TIM-3 protein on human PBMC (human) (Q8TDQ0 22-301 limits assumed): as above
# Chain of TIM-3 protein on human peripheral blood mononuclear lymphocytes (PBMC) (human) (Q8TDQ0 22-301 limits assumed): as above
# Chain of human TIM-3 protein with hFc tag (hTIM-3-hFc protein) (human) (Q8TDQ0 22-200): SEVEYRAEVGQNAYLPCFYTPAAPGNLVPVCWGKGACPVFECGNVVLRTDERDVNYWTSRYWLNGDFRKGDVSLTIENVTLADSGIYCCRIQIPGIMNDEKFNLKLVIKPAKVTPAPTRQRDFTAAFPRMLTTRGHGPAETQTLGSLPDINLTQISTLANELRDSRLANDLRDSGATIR
substance,measurement,setting,value
hIgG control (human IgG) (antibody),"IFN-γ production, lymphocyte activation assay (donor Y), negative control IgG 0.1 µg/ml, N = 1",[1],2100 pg/mL
same,"IFN-γ production, lymphocyte activation assay (donor Y), negative control IgG 0.1 µg/ml, N = 2",[1],2020 pg/mL
same,"IFN-γ production, lymphocyte activation assay (donor Y), negative control IgG 1 µg/ml, N = 1",[1],2190 pg/mL
same,"IFN-γ production, lymphocyte activation assay (donor Y), negative control IgG 1 µg/ml, N = 2",[1],1770 pg/mL
same,"IFN-γ production, lymphocyte activation assay (donor Y), negative control IgG 10 µg/ml, N = 1",[1],1930 pg/mL
same,"IFN-γ production, lymphocyte activation assay (donor Y), negative control IgG 10 µg/ml, N = 2",[1],1980 pg/mL
same,"IFN-γ production, lymphocyte activation assay (donor Y), negative control IgG, concentration head printed '0' (fifth), N = 1",[1],2000 pg/mL
same,"IFN-γ production, lymphocyte activation assay (donor Y), negative control IgG, concentration head printed '0' (fifth), N = 2",[1],2070 pg/mL
same,"IFN-γ production, lymphocyte activation assay (donor Y), negative control IgG, concentration head printed '0' (fourth), N = 1",[1],1990 pg/mL
same,"IFN-γ production, lymphocyte activation assay (donor Y), negative control IgG, concentration head printed '0' (fourth), N = 2",[1],2160 pg/mL
"commercially available anti-TIM-3 antibody (R&D system, MAB2365)",OD450 nm,[2],3.23 and 3.27
same,OD450 nm,[3],3.52 and 3.38
same,OD450 nm,[4],3.42 and 3.32
same,OD450 nm,[5],3.48 and 3.44
same,OD450 nm,[6],1.78 and 1.75
same,OD450 nm,[7],3.45 and 3.42
same,OD450 nm,[8],0.92 and 0.86
same,OD450 nm,[9],0.6 and 0.59
rat IgG (negative control antibody),Mean fluorescence intensity,[10],3.1
same,Mean fluorescence intensity,[11],3.3
same,Mean fluorescence intensity,[12],3
same,Mean fluorescence intensity,[13],3.8
same,Mean fluorescence intensity,[14],3
same,Mean fluorescence intensity,[15],3
same,Mean fluorescence intensity,[16],3
same,OD450,[17],0.11
same,OD450,[18],0.12
same,OD450,[19],0.12
same,OD450,[20],0.12
same,OD450,[21],0.13
same,OD450,[22],0.13
same,OD450,[23],0.22
same,OD450,[24],0.54
same,OD450,[25],0.55
same,OD450,[26],0.57
same,OD450,[27],0.54
same,OD450,[28],0.55
same,OD450,[29],0.58
same,OD450,[30],0.68
same,OD450,[31],0.63
same,OD450,[32],0.67
same,OD450,[33],0.62
same,OD450,[34],0.64
same,OD450,[35],0.66
same,OD450,[36],0.65
same,OD450,[37],0.75
same,OD450,[38],0.11
same,OD450,[39],0.55
same,OD450,[40],0.6
same,Mean fluorescence intensity,[41],3
same,OD450 nm,[2],0.6 and 0.59
same,OD450 nm,[3],0.63 and 0.65
same,OD450 nm,[4],0.69 and 0.58
same,OD450 nm,[5],0.72 and 0.7
same,OD450 nm,[6],0.55 and 0.58
same,OD450 nm,[7],0.63
same,OD450 nm,[8],0.63 and 0.59
same,OD450 nm,[9],0.61 and 0.59
rat IgG control (antibody),"IFN production; antibody 0.001 µg/ml (4th head as printed), N = 1",[42],738 pg/mL
same,"IFN production; antibody 0.001 µg/ml (4th head as printed), N = 2",[42],786 pg/mL
same,"IFN production; antibody 0.001 µg/ml (5th head as printed), N = 1",[42],727 pg/mL
same,"IFN production; antibody 0.001 µg/ml (5th head as printed), N = 2",[42],714 pg/mL
same,"IFN production; antibody 0.1 µg/ml, N = 1",[42],718 pg/mL
same,"IFN production; antibody 0.1 µg/ml, N = 2",[42],664 pg/mL
same,"IFN production; antibody 1 µg/ml, N = 1",[42],694 pg/mL
same,"IFN production; antibody 1 µg/ml, N = 2",[42],574 pg/mL
same,"IFN production; antibody 10 µg/ml, N = 1",[42],620 pg/mL
same,"IFN production; antibody 10 µg/ml, N = 2",[42],582 pg/mL
same,Mean fluorescence intensity,[43],3.2
same,Mean fluorescence intensity,[44],3.8
same,Mean fluorescence intensity,[45],3.7
same,Mean fluorescence intensity,[46],3.6
same,Mean fluorescence intensity,[47],4.8
same,Mean fluorescence intensity,[48],3.5
same,Mean fluorescence intensity,[49],3.3
same,Mean fluorescence intensity,[50],3.4
